Assay results reported in patent publication US20200148768A1.

Target: T1, human BTN1A1-ECD-His6 (human), Q13410
T1 chain: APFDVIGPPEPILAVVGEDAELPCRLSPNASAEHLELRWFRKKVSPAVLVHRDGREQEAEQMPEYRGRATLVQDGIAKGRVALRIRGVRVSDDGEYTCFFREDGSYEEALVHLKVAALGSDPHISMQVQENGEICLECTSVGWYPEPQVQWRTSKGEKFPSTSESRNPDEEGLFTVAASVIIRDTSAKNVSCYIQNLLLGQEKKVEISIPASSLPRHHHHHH
Test: SPR (Biacore), antibody on mIgG capture chip, BTN1A1-ECD-His 2-64 nM
Conditions: remark: other sources report otherwise

Kd: 12.4 nM
B1: STC810 (antibody, V domains shown)
VH: EVQLQQSGPELVKPGASVKISCKASGYTFTHYNMDWVKQSHGKSLEWIGYIYPSNGGTGYNQKFKSRATLTVDKSSSTAYMELHSLTSEDSAVYYCARGAYHYGSSYAYWYFDVWGAGTTVTVSS
VL: DIQMTQTTSSLSASLGDRVTISCSASQDISNYLNWYQQKPDETVKLLISYTSSLHSGVPSRFSGSGSGTDYSLTISNLAPEDIATYYCQQSSKLPFTFGSGTELEIKRA
modifications: here or on the partner: N-glycosylated (PNGase F sensitive)
